From patent US20220089746A1 (INSTITUT NATIONAL DE LA RECHERCHE SCIENTIFIQUE, published 2022)
Read-outs that look alike come from different tables or passages of the source.

How the values were obtained:
[1] = target: T1, recombinant human galectin-7 (human, UniProt P47929 1-136); experiment: ELISA of the selected nanobody clone on hGAL-7 with His-tagged MBP as control; y axis 'ELISA Ratio'; no concentration given
T1 construct: Prototypic galectin with one CRD; also called hGAL-7; human GAL-7

[2] = target: T1, recombinant human galectin-7; experiment: SPR (BIACore), human GAL-7 on the sensor surface, Nb as analyte
Procedure: SPR analysis. Binding affinities of his-tagged GAL-7-specific Nbs was measured by surface plasmon resonance (SPR) using a BIACore® system. Briefly, a buffer flow was run across the sensor surface, which has previously been coated with human GAL-7, then the Nbs were introduced into the device and allowed to bind to the immobilized antigen. The stability of the binding between GAL-7 and the Nbs was measured and used to calculate the dissociation constant (Kd) of the Nbs for human GAL-7.

[3] = target: T1, recombinant human galectin-7; experiment: phage selection and ELISA (FIG. 3A)
[4] = target: T1, recombinant human galectin-7; experiment: cell-based or functional assay
[5] = target: T1, recombinant human galectin-7; experiment: cell-based or functional assay; remark: listed apart in the source

T1 sequence (P47929 whole entry): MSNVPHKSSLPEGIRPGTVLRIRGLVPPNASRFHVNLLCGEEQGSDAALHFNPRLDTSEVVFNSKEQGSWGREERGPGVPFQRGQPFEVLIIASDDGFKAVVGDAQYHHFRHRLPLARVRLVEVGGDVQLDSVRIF

B1: Nanobody 214_H05 (VHH)
VHH: EVQLQASGGGFVQPGGSLRLSCAASGTTSNSSGMGWFRQAPGKEREFVSAISWDHGILTYYADSVKGRFTISRDNSKNTVYLQMNSLRAEDTATYYCAHGYVHFNMTHRHISDYWGQGTQVTVSS
notes: Humanized synthetic single domain antibody (hs2dAb library, Hybrigenics); 181 aa with the tag, so CDR3 has 15 residues, which fits CDR set (c), (k) or (l)
[1]
  binding result: binds

B2: Nanobody 218_F09 (VHH)
VHH: EVQLQASGGGFVQPGGSLRLSCAASGTTSNGEVMGWFRQAPGKEREFVSAISFGAGSSEYYADSVKGRFTISRDNSKNTVYLQMNSLRAEDTATYYCAASWYHSSIGSMSYWGQGTQVTVSS
notes: 178 aa with the tag, so CDR3 has 12 residues, which fits CDR set (b) or (d)
[1]
  binding result: binds

B3: Nanobody 219_F02 (VHH)
VHH: EVQLQASGGGFVQPGGSLRLSCAASGSTSYSSTMGWFRQAPGKEREFVSAISFDGTSKPYYADSVKGRFTISRDNSKNTVYLQMNSLRAEDTATYYCAAGEWEALMWPPVHDFWIYYWGQGTQVTVSS
notes: 184 aa with the tag, so CDR3 has 18 residues, which fits CDR set (g) or (i)
[1]
  binding result: binds

B4: Nanobody 217_C02 (SEQ ID NO: 52) (VHH)
VHH: EVQLQASGGGFVQPGGSLRLSCAASGTYSSIEVMGWFRQAPGKEREFVSAISFEPNEFAYYADSVKGRFTISRDNSKNTVYLQMNSLRAEDTATYYCASSVEWRQNGKPNTASYWGQGTQVTVSS
notes: Humanized synthetic single domain antibody, his-tagged, made in E. coli; 181 aa with the tag; also called NB #12
[2]
  Kd: 1.5 µM
  koff: 0.00165 s⁻¹
  kon: 1100 M⁻¹ s⁻¹

B5: Nanobody 218_A01 (VHH)
VHH: EVQLQASGGGFVQPGGSLRLSCAASGAGSRSDVMGWFRQAPGKEREFVSAISGFWGWTTYYADSVKGRFTISRDNSKNTVYLQMNSLRAEDTATYYCALGGAPGQTGYWGQGTQVTVSS
notes: 175 aa with the tag, so CDR3 has 9 residues, which fits CDR set (a), (e) or (h)
[1]
  binding result: binds

B6: Nanobody 219_A01 (VHH)
VHH: EVQLQASGGGFVQPGGSLRLSCAASGGGYDWDAMGWFRQAPGKEREFVSAISSNNNGSRYYADSVKGRFTISRDNSKNTVYLQMNSLRAEDTATYYCAADQYWGQGTQVTVSS
notes: 169 aa with the tag, so CDR3 has 3 residues
[3]
  binding result: binds

B7: Nanobody 218_D11 (VHH)
VHH: EVQLQASGGGFVQPGGSLRLSCAASGDTSRFDVMGWFRQAPGKEREFVSAISWWSSDHIYYADSVKGRFTISRDNSKNTVYLQMNSLRAEDTATYYCAYGEYPPRMNRRPYWGQGTQVTVSS
notes: as for B2
[1]
  binding result: binds

B8: Nanobody 219_H09 (VHH)
VHH: EVQLQASGGGFVQPGGSLRLSCAASGSTSYGETMGWFRQAPGKEREFVSAISYYSTRKPYYADSVKGRFTISRDNSKNTVYLQMNSLRAEDTATYYCAIVAYIYADGVRGYHQKIDYWGQGTQVTVSS
notes: as for B3
[1]
  binding result: binds

B9: Nanobody 216_A01 (SEQ ID NO: 6) (VHH)
VHH: EVQLQASGGGFVQPGGSLRLSCAASGRYSRIEIMGWFRQAPGKEREFVSAISSTPSSNEYYADSVKGRFTISRDNSKNTVYLQMNSLRAEDTATYYCARWDWHSWDTYWGQGTQVTVSS
notes: Humanized synthetic single domain antibody, his-tagged, made in E. coli; 175 aa with the tag; also called NB #2
[4]
  IC50 (read off the curve): inhibition of hGAL-7-induced apoptosis of Jurkat T cells (Annexin V, flow cytometry): ~3 µM
[5]
  IC50 (read off the curve): inhibition of hGAL-7-induced apoptosis of Jurkat T cells (Annexin V, flow cytometry): ~2 µM
[2]
  Kd: 0.123 µM
  koff: 0.00348 s⁻¹
  kon: 28400 M⁻¹ s⁻¹

B10: Nanobody 219_F09 (VHH)
VHH: EVQLQASGGGFVQPGGSLRLSCAASGAYSFESGMGWFRQAPGKEREFVSAISSDADLFSYYADSVKGRFTISRDNSKNTVYLQMNSLRAEDTATYYCAAFSSGGELSYWGQGTQVTVSS
notes: as for B5
[1]
  binding result: binds

B11: Nanobody 216_D11 (VHH)
VHH: EVQLQASGGGFVQPGGSLRLSCAASGDTSESTSMGWFRQAPGKEREFVSAISRSSTWDAYYADSVKGRFTISRDNSKNTVYLQMNSLRAEDTATYYCAMADIFDHPQNASFMKYWGQGTQVTVSS
notes: 181 aa with the tag, so CDR3 has 15 residues, which fits CDR set (c) or (l)
[1]
  binding result: binds

B12: Nanobody 218_B04 (VHH)
VHH: EVQLQASGGGFVQPGGSLRLSCAASGRTSSQDIMGWFRQAPGKEREFVSAISDYSGGNVYYADSVKGRFTISRDNSKNTVYLQMNSLRAEDTATYYCAFLGEEKTSWYWGQGTQVTVSS
notes: as for B5
[1]
  binding result: binds
